target: SHP2-C SH2; assay: SH2 binding enrichment of the phosphorylated peptide, bacterial display (enrichment ratio); higher = better substrate or ligand; peptides without Tyr show the background
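For SH2 binding enrichment of the phosphorylated peptide, bacterial display in this document: peptide library displayed on the E. coli surface as eCPX fusions, selected cells deep-sequenced, score is each peptide's frequency after selection divided by its frequency in the input.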

First: QKFMAYLSQGG [HLCS_Y236]
Second: LSIDRYHAIVY [NPSR1_Y147]
The SH2 binding enrichment of the first is higher: 1.17 for the first, 1.03 for the second.

First: TEAEPYFRSLR [NPHS1_Y1138_YF]
Second: GCRSKHVGLWG [KCNQ1_Y184_Y184H]
The SH2 binding enrichment of the first is higher: 1.02 for the first, 0.906 for the second.

Compared with PINLYYLMDLS [ITGB2_Y131_D128N], HIAKVYRRDNP [HARS1_Y156] is lower in SH2 binding enrichment: 1.16 for the first, 0.722 for the second.

First: FRSSLYLLMET [MYO5C_Y633]
Second: IEDPYYGNDSD [ACP1_Y133]
The SH2 binding enrichment of the first is higher: 1.16 for the first, 0.709 for the second.

Going from ISGGGYRACPA [FGB_Y71_R74C] to IRRSSYEDSSL [HNF4A_Y144_T139I], the SH2 binding enrichment falls from 0.715 to 0.588.

Going from FADIAYNFRRG [PAH_Y166_H170R_YF] to RLLRGYNQSAY [HLA-C_Y137_D138N], the SH2 binding enrichment rises from 0.822 to 1.09.

Going from ASTDFYKRGDF [PDHA1_Y243_YF] to RGFRQYAFDGK [HLA-A_Y140_D140Y_YF], the SH2 binding enrichment rises from 0.611 to 0.794.

Going from EEEYEYMNRRR [ERBB3_Y1199_D1194E] to DLDFTYIFPNI [PTEN_Y27_L25F_YF], the SH2 binding enrichment falls from 0.618 to 0.435.

First: RPGGRYPVARR [SHANK3_Y1569_S1566G]
Second: LKVDVYRRSHK [FUT3_Y222_G223R]
The SH2 binding enrichment of the first is lower: 0.433 for the first, 0.931 for the second.

Compared with QDRDLYPCPGT [RLF_Y671], KLQKKYGPIYS [CYP17A1_Y60] is higher in SH2 binding enrichment: 0.717 for the first, 0.819 for the second.

Compared with TQPSPYAVYRF [RPGRIP1_Y823], TDRNLYSKNLV [CFAP58_Y501_S496T] is lower in SH2 binding enrichment: 1.04 for the first, 0.559 for the second.

First: EVTLTYATGIK [NFKB1_Y485_T489I]
Second: QYRFIYMAVQH [PTPN11_Y515]
The SH2 binding enrichment of the first is lower: 0.646 for the first, 0.713 for the second.

First: ILKPDYQPLAI [HYDIN_Y1072]
Second: LVMFTYAIFGM [SCN1A_Y1684_I1683T]
The SH2 binding enrichment of the first is higher: 0.847 for the first, 0.762 for the second.

Compared with KKFPDYIQSAM [SGMS2_Y59_I62S_YF], KKGIVYVFNGR [ITGAV_Y404_I405V] is higher in SH2 binding enrichment: 0.694 for the first, 1.91 for the second.

Compared with SETDDYAEIIV [PTK2_Y397_D402V], EKIANYKEGTF [CLRN1_Y171_YF] is lower in SH2 binding enrichment: 0.761 for the first, 0.554 for the second.

Going from IIEDPYYGNDS [ACP1_Y132] to PEVCDYGLGGG [GSTO1_Y239_A236V], the SH2 binding enrichment rises from 0.492 to 1.16.

LLINKYGLSAH [SCP2_Y151] was tested, and the SH2 binding enrichment was 0.821.

target: Grb2 SH2 (UniProt P62993); assay: as above
Sequence (P62993 whole entry, looked up): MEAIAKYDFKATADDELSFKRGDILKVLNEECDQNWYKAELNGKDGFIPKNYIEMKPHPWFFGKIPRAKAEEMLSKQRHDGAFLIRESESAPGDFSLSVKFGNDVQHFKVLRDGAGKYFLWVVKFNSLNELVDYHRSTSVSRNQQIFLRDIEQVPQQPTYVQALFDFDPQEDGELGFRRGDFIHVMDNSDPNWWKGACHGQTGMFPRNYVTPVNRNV

Going from QKFMAYLSQGG [HLCS_Y236] to LSIDRYHAIVY [NPSR1_Y147], the SH2 binding enrichment rises from 1.23 to 1.25.

Compared with TEAEPYFRSLR [NPHS1_Y1138_YF], GCRSKHVGLWG [KCNQ1_Y184_Y184H] is higher in SH2 binding enrichment: 0.938 for the first, 1.17 for the second.

First: PINLYYLMDLS [ITGB2_Y131_D128N]
Second: HIAKVYRRDNP [HARS1_Y156]
The SH2 binding enrichment of the first is lower: 1.22 for the first, 1.36 for the second.

Going from FRSSLYLLMET [MYO5C_Y633] to IEDPYYGNDSD [ACP1_Y133], the SH2 binding enrichment falls from 1.3 to 1.07.

Compared with ISGGGYRACPA [FGB_Y71_R74C], IRRSSYEDSSL [HNF4A_Y144_T139I] is lower in SH2 binding enrichment: 0.958 for the first, 0.749 for the second.

First: FADIAYNFRRG [PAH_Y166_H170R_YF]
Second: RLLRGYNQSAY [HLA-C_Y137_D138N]
The SH2 binding enrichment of the first is lower: 0.799 for the first, 1.11 for the second.

Compared with ASTDFYKRGDF [PDHA1_Y243_YF], RGFRQYAFDGK [HLA-A_Y140_D140Y_YF] is higher in SH2 binding enrichment: 0.614 for the first, 0.832 for the second.

First: EEEYEYMNRRR [ERBB3_Y1199_D1194E]
Second: DLDFTYIFPNI [PTEN_Y27_L25F_YF]
The SH2 binding enrichment of the first is higher: 0.777 for the first, 0.758 for the second.

First: RPGGRYPVARR [SHANK3_Y1569_S1566G]
Second: LKVDVYRRSHK [FUT3_Y222_G223R]
The SH2 binding enrichment of the first is lower: 0.749 for the first, 1.08 for the second.

Going from QDRDLYPCPGT [RLF_Y671] to KLQKKYGPIYS [CYP17A1_Y60], the SH2 binding enrichment falls from 1.11 to 1.01.

First: TQPSPYAVYRF [RPGRIP1_Y823]
Second: TDRNLYSKNLV [CFAP58_Y501_S496T]
The SH2 binding enrichment of the first is higher: 0.847 for the first, 0.769 for the second.

Compared with EVTLTYATGIK [NFKB1_Y485_T489I], QYRFIYMAVQH [PTPN11_Y515] is higher in SH2 binding enrichment: 0.916 for the first, 1.2 for the second.

Compared with ILKPDYQPLAI [HYDIN_Y1072], LVMFTYAIFGM [SCN1A_Y1684_I1683T] is higher in SH2 binding enrichment: 0.814 for the first, 1.16 for the second.

Compared with KKFPDYIQSAM [SGMS2_Y59_I62S_YF], KKGIVYVFNGR [ITGAV_Y404_I405V] is higher in SH2 binding enrichment: 0.821 for the first, 2.05 for the second.

Compared with SETDDYAEIIV [PTK2_Y397_D402V], EKIANYKEGTF [CLRN1_Y171_YF] is lower in SH2 binding enrichment: 0.975 for the first, 0.91 for the second.

Compared with IIEDPYYGNDS [ACP1_Y132], PEVCDYGLGGG [GSTO1_Y239_A236V] is higher in SH2 binding enrichment: 0.88 for the first, 1.05 for the second.

LLINKYGLSAH [SCP2_Y151] was tested, and the SH2 binding enrichment was 0.869.

target: c-Src SH2; assay: as above

Compared with QKFMAYLSQGG [HLCS_Y236], LSIDRYHAIVY [NPSR1_Y147] is higher in SH2 binding enrichment: 0.877 for the first, 5.31 for the second.

First: TEAEPYFRSLR [NPHS1_Y1138_YF]
Second: GCRSKHVGLWG [KCNQ1_Y184_Y184H]
The SH2 binding enrichment of the first is lower: 0.571 for the first, 0.86 for the second.

Compared with PINLYYLMDLS [ITGB2_Y131_D128N], HIAKVYRRDNP [HARS1_Y156] is higher in SH2 binding enrichment: 0.624 for the first, 0.747 for the second.

Going from FRSSLYLLMET [MYO5C_Y633] to IEDPYYGNDSD [ACP1_Y133], the SH2 binding enrichment falls from 0.855 to 0.623.

Going from ISGGGYRACPA [FGB_Y71_R74C] to IRRSSYEDSSL [HNF4A_Y144_T139I], the SH2 binding enrichment falls from 0.533 to 0.47.

First: FADIAYNFRRG [PAH_Y166_H170R_YF]
Second: RLLRGYNQSAY [HLA-C_Y137_D138N]
The SH2 binding enrichment of the first is lower: 0.541 for the first, 0.825 for the second.

First: ASTDFYKRGDF [PDHA1_Y243_YF]
Second: RGFRQYAFDGK [HLA-A_Y140_D140Y_YF]
The SH2 binding enrichment of the first is lower: 0.5 for the first, 0.534 for the second.

First: EEEYEYMNRRR [ERBB3_Y1199_D1194E]
Second: DLDFTYIFPNI [PTEN_Y27_L25F_YF]
The SH2 binding enrichment of the first is higher: 0.605 for the first, 0.47 for the second.

Going from RPGGRYPVARR [SHANK3_Y1569_S1566G] to LKVDVYRRSHK [FUT3_Y222_G223R], the SH2 binding enrichment rises from 0.492 to 0.677.

First: QDRDLYPCPGT [RLF_Y671]
Second: KLQKKYGPIYS [CYP17A1_Y60]
The SH2 binding enrichment of the first is higher: 0.644 for the first, 0.588 for the second.

Compared with TQPSPYAVYRF [RPGRIP1_Y823], TDRNLYSKNLV [CFAP58_Y501_S496T] is lower in SH2 binding enrichment: 1.7 for the first, 0.408 for the second.

Going from EVTLTYATGIK [NFKB1_Y485_T489I] to QYRFIYMAVQH [PTPN11_Y515], the SH2 binding enrichment rises from 0.413 to 0.693.

Compared with ILKPDYQPLAI [HYDIN_Y1072], LVMFTYAIFGM [SCN1A_Y1684_I1683T] is higher in SH2 binding enrichment: 0.541 for the first, 0.542 for the second.

Going from KKFPDYIQSAM [SGMS2_Y59_I62S_YF] to KKGIVYVFNGR [ITGAV_Y404_I405V], the SH2 binding enrichment rises from 0.532 to 1.32.

Going from SETDDYAEIIV [PTK2_Y397_D402V] to EKIANYKEGTF [CLRN1_Y171_YF], the SH2 binding enrichment falls from 0.795 to 0.443.

First: IIEDPYYGNDS [ACP1_Y132]
Second: PEVCDYGLGGG [GSTO1_Y239_A236V]
The SH2 binding enrichment of the first is higher: 0.837 for the first, 0.562 for the second.

In the case of LLINKYGLSAH [SCP2_Y151], the SH2 binding enrichment is reported as 0.349.

system: c-Abl (mouse); assay: phosphorylation enrichment, bacterial display (enrichment ratio); higher = better substrate or ligand; peptides without Tyr show the background;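 also: 11-residue human phosphosite peptides and single-mutation variants displayed on the E. coli surface, counted by deep sequencing, each peptide's frequency after selection divided by its frequency in the unselected input library; frequency after pTyr selection over input frequency; kinase dosed for 20-30% of maximal phosphorylation in three min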

First: QKFMAYLSQGG [HLCS_Y236]
Second: LSIDRYHAIVY [NPSR1_Y147]
The phosphorylation enrichment of the first is lower: 0.446 for the first, 0.982 for the second.

Going from TEAEPYFRSLR [NPHS1_Y1138_YF] to GCRSKHVGLWG [KCNQ1_Y184_Y184H], the phosphorylation enrichment falls from 0.758 to 0.516.

First: PINLYYLMDLS [ITGB2_Y131_D128N]
Second: HIAKVYRRDNP [HARS1_Y156]
The phosphorylation enrichment of the first is higher: 1.44 for the first, 1.24 for the second.

Going from FRSSLYLLMET [MYO5C_Y633] to IEDPYYGNDSD [ACP1_Y133], the phosphorylation enrichment falls from 0.896 to 0.83.

Compared with ISGGGYRACPA [FGB_Y71_R74C], IRRSSYEDSSL [HNF4A_Y144_T139I] is higher in phosphorylation enrichment: 0.58 for the first, 0.824 for the second.

Compared with FADIAYNFRRG [PAH_Y166_H170R_YF], RLLRGYNQSAY [HLA-C_Y137_D138N] is lower in phosphorylation enrichment: 0.462 for the first, 0.36 for the second.

First: ASTDFYKRGDF [PDHA1_Y243_YF]
Second: RGFRQYAFDGK [HLA-A_Y140_D140Y_YF]
The phosphorylation enrichment of the first is lower: 0.515 for the first, 0.595 for the second.

Compared with EEEYEYMNRRR [ERBB3_Y1199_D1194E], DLDFTYIFPNI [PTEN_Y27_L25F_YF] is higher in phosphorylation enrichment: 0.329 for the first, 0.8 for the second.

Compared with RPGGRYPVARR [SHANK3_Y1569_S1566G], LKVDVYRRSHK [FUT3_Y222_G223R] is higher in phosphorylation enrichment: 0.657 for the first, 0.908 for the second.

Going from QDRDLYPCPGT [RLF_Y671] to KLQKKYGPIYS [CYP17A1_Y60], the phosphorylation enrichment falls from 0.863 to 0.451.

First: TQPSPYAVYRF [RPGRIP1_Y823]
Second: TDRNLYSKNLV [CFAP58_Y501_S496T]
The phosphorylation enrichment of the first is higher: 22.2 for the first, 0.66 for the second.

Compared with EVTLTYATGIK [NFKB1_Y485_T489I], QYRFIYMAVQH [PTPN11_Y515] is higher in phosphorylation enrichment: 0.66 for the first, 0.973 for the second.

Going from ILKPDYQPLAI [HYDIN_Y1072] to LVMFTYAIFGM [SCN1A_Y1684_I1683T], the phosphorylation enrichment rises from 0.62 to 1.82.

Going from KKFPDYIQSAM [SGMS2_Y59_I62S_YF] to KKGIVYVFNGR [ITGAV_Y404_I405V], the phosphorylation enrichment falls from 0.472 to 0.443.

Compared with SETDDYAEIIV [PTK2_Y397_D402V], EKIANYKEGTF [CLRN1_Y171_YF] is lower in phosphorylation enrichment: 0.677 for the first, 0.543 for the second.

Going from IIEDPYYGNDS [ACP1_Y132] to PEVCDYGLGGG [GSTO1_Y239_A236V], the phosphorylation enrichment falls from 0.849 to 0.726.

For LLINKYGLSAH [SCP2_Y151], the phosphorylation enrichment was 0.559.
